From publication PMC10164398

Legend:
Test in all cases: EMSA
[1] = molecular target: NS1 (89-237) effector domain (Influenza A virus (H3N2), UniProt P03495 89-237)
[2] = molecular target: NS1 (89-237) effector domain;eIF4E;eIF4G1 (88-653) (Influenza A virus (H3N2);human;human, UniProt P03495;P06730;Q04637 89-237;1-217;88-653, ||)
eIF4E;eIF4G1 (88-653) = eIF4E;eIF4G1 (88-653) (human;human, UniProt P06730;Q04637 1-217;88-653, |)
Chain of eIF4E;eIF4G1 (88-653) (P06730 whole entry, chain 1 of 2): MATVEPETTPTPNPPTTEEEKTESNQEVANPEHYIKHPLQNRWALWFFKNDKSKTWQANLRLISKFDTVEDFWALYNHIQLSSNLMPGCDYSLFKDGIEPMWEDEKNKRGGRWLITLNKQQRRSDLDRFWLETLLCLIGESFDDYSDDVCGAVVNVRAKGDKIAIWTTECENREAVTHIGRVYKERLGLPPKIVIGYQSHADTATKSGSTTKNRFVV
Chain of eIF4E;eIF4G1 (88-653) (Q04637 88-653, chain 2 of 2): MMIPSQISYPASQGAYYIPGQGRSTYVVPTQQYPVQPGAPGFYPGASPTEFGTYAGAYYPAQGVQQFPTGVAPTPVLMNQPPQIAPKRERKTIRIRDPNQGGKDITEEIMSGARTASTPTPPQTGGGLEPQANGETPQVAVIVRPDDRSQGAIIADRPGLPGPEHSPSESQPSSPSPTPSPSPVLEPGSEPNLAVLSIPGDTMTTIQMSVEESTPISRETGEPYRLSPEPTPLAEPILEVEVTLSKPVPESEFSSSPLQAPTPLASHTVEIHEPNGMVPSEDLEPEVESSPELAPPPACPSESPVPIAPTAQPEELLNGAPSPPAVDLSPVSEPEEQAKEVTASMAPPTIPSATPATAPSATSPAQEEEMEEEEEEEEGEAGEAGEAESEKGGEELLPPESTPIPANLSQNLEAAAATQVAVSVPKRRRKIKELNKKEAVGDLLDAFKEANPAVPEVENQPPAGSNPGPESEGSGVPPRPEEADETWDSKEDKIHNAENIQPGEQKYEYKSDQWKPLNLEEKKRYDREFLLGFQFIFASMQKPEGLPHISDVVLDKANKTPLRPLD

Chain of NS1 (89-237) effector domain;eIF4E;eIF4G1 (88-653) (P03495 89-237, chain 1 of 3): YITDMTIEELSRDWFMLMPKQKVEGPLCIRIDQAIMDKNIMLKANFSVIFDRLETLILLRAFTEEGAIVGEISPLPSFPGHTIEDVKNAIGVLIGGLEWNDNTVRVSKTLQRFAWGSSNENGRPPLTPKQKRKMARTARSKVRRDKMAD
Chain of NS1 (89-237) effector domain;eIF4E;eIF4G1 (88-653) (P06730 whole entry, chain 2 of 3, the tested form may be a part): as the sequence (P06730 whole entry, chain 1 of 2) above
Chain of NS1 (89-237) effector domain;eIF4E;eIF4G1 (88-653) (Q04637 88-653, chain 3 of 3): as the sequence (Q04637 88-653, chain 2 of 2) above
Chain of NS1 (89-237) effector domain (P03495 89-237): as the sequence (P03495 89-237, chain 1 of 3) above

GGGUGACAGUCCUGUUU (ssRNA, 5' m7G cap (vaccinia capping)) [5'-m7G-mRNA]: no binding [1]; binds [2]; binds (eIF4E;eIF4G1 (88-653)).
